Test results reported in article PMC8673607, “ENAP1 retrains seed germination via H3K9 acetylation mediated positive feedback regulation of ABI5” (PLoS Genetics, 2021).

Molecular target: T1, His-ABI5 (Arabidopsis, UniProt Q9SJN0 1-442)
T1 construct: ABI5, Arabidopsis, AT2G36270; CDS ligated to pET28a; source: E. coli, purified (Ni-NTA agarose)
T1 sequence (looked up): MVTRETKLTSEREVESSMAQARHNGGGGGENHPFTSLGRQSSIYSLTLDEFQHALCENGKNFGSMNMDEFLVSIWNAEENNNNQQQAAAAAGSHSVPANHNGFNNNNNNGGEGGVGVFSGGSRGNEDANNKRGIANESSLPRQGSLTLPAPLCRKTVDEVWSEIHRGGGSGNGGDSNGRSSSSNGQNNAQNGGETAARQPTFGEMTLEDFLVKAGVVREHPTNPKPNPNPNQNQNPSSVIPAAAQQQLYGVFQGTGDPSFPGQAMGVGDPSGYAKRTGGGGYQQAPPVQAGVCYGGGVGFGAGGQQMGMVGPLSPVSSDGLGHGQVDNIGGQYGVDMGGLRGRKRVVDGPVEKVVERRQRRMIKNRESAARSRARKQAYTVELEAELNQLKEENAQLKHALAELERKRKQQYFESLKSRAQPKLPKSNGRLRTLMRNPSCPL
Assay: pull-down; His-ABI5 purified with Ni-NTA agarose incubated with dialyzed MBP fused proteins 1h at 4°C; column buffer 20 mM Tris-HCl pH 7.4, 0.2 M NaCl, 1 mM EDTA; blots with anti-His and anti-MBP
Details: both partners purified

- binding result: binds
B1: MBP-ENAP1 (natural protein, Arabidopsis, UniProt Q8VZI9 1-249, looked up)
chain: METTPETQSKTHRLPAGREDWWSEDATATLIEAWGDRYVNLNRGNLRQNDWKEVADAVNSSHGNGRPKTDVQCKNRIDTLKKKYKTEKAKPLSNWCFFDRLDFLIGPVMKKSSGAVVKSALMNPNLNPTGSKSTGSSLDDDDDDDDDDEEDDDDAGDWGFVVRKHRKVEDVDSSEGSAFRELARSILKLGEAFERIEGKKQQMMIELEKQRMEVAKELELQRMNMLMEMQLELEKSKLGKRRAASGKKL
notes: ENAP1, Arabidopsis, At3G11100; CDS ligated to pVP13 (Gateway vector, His tag removed); source: E. coli, purified (amylose resin, eluted with maltose, dialyzed)
